First the molecules themselves.
B1: ZBTB22 (parent)
chain: HTGLKPYECGVCAKKFMWRDSFMR
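Also: lentivirally expressed fusions sorted by FACS into six bins by GFP to DsRed ratio, PSI derived from sequencing read proportions per bin multiplied by bin number.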

The series covers variants of B1. The experiment in a line: protein stability index of a GFP-peptide fusion (GPS, HEK-293T) (PSI 1-6); higher = more stable. The settings on record: c terminus: a fixed tail appended.
With HTGLKPYPCGVCAKKFMWRDSFMR [E8P], the protein stability index came to 2.59.

For HTGLKPYYCGVCAKKFMWRDSFMR [E8Y], the protein stability index came to 1.3.

In the case of HTGLKPYLCGVCAKKFMWRDSFMR [E8L], the protein stability index turned out to be 1.49.

Consider HTGLKPYICGVCAKKFMWRDSFMR [E8I], for which the protein stability index was determined as 2.78.

Turning to HTGLKPYFCGVCAKKFMWRDSFMR [E8F], the protein stability index is 2.2.

With HTGLKPYECGVCAKKFMNRDSFMR [W18N], the protein stability index amounted to 1.61.

For the variant HTGLKPYECGVCAKKFMARDSFMR [W18A], the protein stability index was determined as 1.06.

Consider HTGLKPYECGVCAKKFMLRDSFMR [W18L], for which the protein stability index amounted to 3.88.

Consider HTGLKPYECGVCAKKFMSRDSFMR [W18S], for which the protein stability index is 1.52.

HTGLKPYECGVCAKKFMVRDSFMR [W18V]: the protein stability index came to 2.43.

Turning to HTGLKPYECGVCAKKFMTRDSFMR [W18T], the protein stability index is 1.68.

For HTGLKPYECGVCAKKFMHRDSFMR [W18H], the protein stability index worked out at 2.81.

As for HTGLKPYECGVCAKKFMDRDSFMR [W18D], the protein stability index is 2.09.

As to HTGLKPYECGVCAKKFMIRDSFMR [W18I], the protein stability index came out at 1.57.

On to HTGLKPYECGVCAKKFMKRDSFMR [W18K], for which the protein stability index stood at 1.75.

Turning to HTGLKPYECGVCAKKFMMRDSFMR [W18M], the protein stability index was found to be 1.78.

For the variant HTGLKPYECGVCAKKFMERDSFMR [W18E], the protein stability index was found to be 2.75.

HTGLKPYECGVCAKKFMCRDSFMR [W18C]: the protein stability index was found to be 1.85.

As for HTGLKPYECGVCAKKFMPRDSFMR [W18P], the protein stability index was 2.88.

HTGLKPYECGVCAKKFMYRDSFMR [W18Y]: the protein stability index is 3.

Turning to HTGLKPYECGVCAKKFMRRDSFMR [W18R], the protein stability index worked out at 2.05.

For the variant HTGLKPYECGVCAYKFMWRDSFMR [K14Y], the protein stability index turned out to be 3.07.

On to HTGLKPYECGVCAAKFMWRDSFMR [K14A], for which the protein stability index was 1.26.

For HTGLKPYECGVCAPKFMWRDSFMR [K14P], the protein stability index came to 1.21.

Take HTGLKPYECGVCAWKFMWRDSFMR [K14W]: the protein stability index came out at 2.78.

As to HTGLKPYECGVCAFKFMWRDSFMR [K14F], the protein stability index is 1.99.

Take HTGLKPYECGVCACKFMWRDSFMR [K14C]: the protein stability index came to 2.55.

In the case of HTGLKPYECGVCADKFMWRDSFMR [K14D], the protein stability index was 1.91.

Turning to HTGLKPYECGVCALKFMWRDSFMR [K14L], the protein stability index worked out at 1.82.

In the case of HTGLKPYECGVCAIKFMWRDSFMR [K14I], the protein stability index is 1.66.

As to HTGLKPYECGVCAQKFMWRDSFMR [K14Q], the protein stability index was 2.53.

Take HTGLKPYECGVCATKFMWRDSFMR [K14T]: the protein stability index was 2.19.

Regarding HTGLKPYECGVCAEKFMWRDSFMR [K14E], the protein stability index amounted to 1.9.

HTGLKPYECGVCAKKHMWRDSFMR [F16H]: the protein stability index was 1.6.

On to HTGLKPYECGVCAKKIMWRDSFMR [F16I], for which the protein stability index came out at 1.6.

As for HTGLKPYECGVCAKKPMWRDSFMR [F16P], the protein stability index was 3.

With HTGLKPYECGVCAKKYMWRDSFMR [F16Y], the protein stability index was 3.36.

For HTGLKPYECGVCAKKCMWRDSFMR [F16C], the protein stability index amounted to 2.57.

As to HTGLKPYECGVCAKKMMWRDSFMR [F16M], the protein stability index was determined as 2.46.

Turning to HTGLKPYECGVCAKKDMWRDSFMR [F16D], the protein stability index was found to be 2.45.

Take HTGLKPYECGVCAKKKMWRDSFMR [F16K]: the protein stability index came out at 1.32.

As to HTGLKPYECGVCAKKVMWRDSFMR [F16V], the protein stability index amounted to 1.95.

In the case of HTGLKPYECGVCAKKAMWRDSFMR [F16A], the protein stability index came to 1.1.

On to HTGLKPYECGVCAKKNMWRDSFMR [F16N], for which the protein stability index came to 1.39.

For the variant HTGLKPYECGVCAKKEMWRDSFMR [F16E], the protein stability index was determined as 1.31.

With HTGLKPYECGVCAKKSMWRDSFMR [F16S], the protein stability index worked out at 3.33.

HTGLKPYECGVCAKKRMWRDSFMR [F16R]: the protein stability index worked out at 2.1.

For HTGLKPYECGVCAKKQMWRDSFMR [F16Q], the protein stability index was 2.16.

Take HTGLKPYECGVGAKKFMWRDSFMR [C12G]: the protein stability index was 3.24.

As for HTGLKPYECGVDAKKFMWRDSFMR [C12D], the protein stability index is 1.12.

As for HTGLKPYECGVYAKKFMWRDSFMR [C12Y], the protein stability index stood at 2.91.

In the case of HTGLKPYECGVSAKKFMWRDSFMR [C12S], the protein stability index was determined as 2.56.

On to HTGLKPYECGVIAKKFMWRDSFMR [C12I], for which the protein stability index turned out to be 3.24.

In the case of HTGLKPYECGVEAKKFMWRDSFMR [C12E], the protein stability index is 3.07.

Turning to HTGLKPYECGVTAKKFMWRDSFMR [C12T], the protein stability index was 2.56.

Consider HTGLKPYECGVNAKKFMWRDSFMR [C12N], for which the protein stability index is 2.56.

As for HTGLKPYECGVKAKKFMWRDSFMR [C12K], the protein stability index was determined as 2.58.

With HTGLKPYECGVWAKKFMWRDSFMR [C12W], the protein stability index is 3.06.

As to HTGLKPYECGVPAKKFMWRDSFMR [C12P], the protein stability index worked out at 1.73.

With HTGLKPYECGVAAKKFMWRDSFMR [C12A], the protein stability index was 1.62.

HTGLKPMECGVCAKKFMWRDSFMR [Y7M]: the protein stability index amounted to 2.08.

As for HTGLKPSECGVCAKKFMWRDSFMR [Y7S], the protein stability index was determined as 1.97.

Consider HTGLKPVECGVCAKKFMWRDSFMR [Y7V], for which the protein stability index came to 1.67.

With HTGLKPNECGVCAKKFMWRDSFMR [Y7N], the protein stability index is 2.43.

As for HTGLKPPECGVCAKKFMWRDSFMR [Y7P], the protein stability index was 1.34.

Consider HTGLKPTECGVCAKKFMWRDSFMR [Y7T], for which the protein stability index is 3.12.

For the variant HTGLKPQECGVCAKKFMWRDSFMR [Y7Q], the protein stability index is 1.77.

Turning to HTGLKPLECGVCAKKFMWRDSFMR [Y7L], the protein stability index turned out to be 2.73.

As for HTGLKPKECGVCAKKFMWRDSFMR [Y7K], the protein stability index came to 3.09.

On to HTGLKPYECGVCMKKFMWRDSFMR [A13M], for which the protein stability index worked out at 3.7.

As to HTGLKPYECGVCDKKFMWRDSFMR [A13D], the protein stability index is 1.

As for HTGLKPYECGVCQKKFMWRDSFMR [A13Q], the protein stability index turned out to be 1.55.

HTGLKPYECGVCHKKFMWRDSFMR [A13H]: the protein stability index amounted to 2.56.

HTGLKPYECGVCLKKFMWRDSFMR [A13L]: the protein stability index amounted to 2.64.

Consider HTGLKPYECGVCWKKFMWRDSFMR [A13W], for which the protein stability index stood at 3.78.

As to HTGLKPYECGVCGKKFMWRDSFMR [A13G], the protein stability index worked out at 1.54.

HTGLKPYECGVCEKKFMWRDSFMR [A13E]: the protein stability index turned out to be 1.56.

Turning to HTGLKPYECGVCFKKFMWRDSFMR [A13F], the protein stability index came out at 3.02.

Turning to HTGLKPYECGVCKKKFMWRDSFMR [A13K], the protein stability index was determined as 1.22.

With HTGLKPYECGVCIKKFMWRDSFMR [A13I], the protein stability index worked out at 2.5.

In the case of HTGLKPYECGLCAKKFMWRDSFMR [V11L], the protein stability index was 1.85.

Take HTGLKPYECGHCAKKFMWRDSFMR [V11H]: the protein stability index amounted to 2.37.

As to HTGLKPYECGDCAKKFMWRDSFMR [V11D], the protein stability index was 3.26.

As to HTGLKPYECGFCAKKFMWRDSFMR [V11F], the protein stability index was found to be 2.4.

As for HTGLKPYECGGCAKKFMWRDSFMR [V11G], the protein stability index turned out to be 1.25.

Turning to HTGLKPYECGYCAKKFMWRDSFMR [V11Y], the protein stability index is 2.59.

Regarding HTGLKPYECGECAKKFMWRDSFMR [V11E], the protein stability index is 2.09.

For HTGLKPYECGKCAKKFMWRDSFMR [V11K], the protein stability index stood at 2.98.

Regarding HTGLKPYECGRCAKKFMWRDSFMR [V11R], the protein stability index is 1.75.

For HTGLKPYECGICAKKFMWRDSFMR [V11I], the protein stability index amounted to 3.5.

For the variant HTGLKPYECGPCAKKFMWRDSFMR [V11P], the protein stability index came to 3.87.

On to HTGLKPYECGTCAKKFMWRDSFMR [V11T], for which the protein stability index stood at 1.83.

For the variant HTGLKPYECGNCAKKFMWRDSFMR [V11N], the protein stability index turned out to be 1.37.

With HTGLKPYECGQCAKKFMWRDSFMR [V11Q], the protein stability index is 1.8.

The values are drawn from the supplement of paper PMC10567573.
